Experiment [1] deals with USP5 (UniProt P45974). Nature of the experiment: GST-USP5 pull-down from cell lysate. Particulars: reference: PD-1-cHA wild type lysate; sites T234.
In experiment [2] the target is USP5 (UniProt P45974). The experiment can be described thus: anti-HA co-immunoprecipitation, immunoblot. Particulars: reference: PD-1 wild type; sites T234.
For experiment [3], the target named is USP5 (UniProt P45974). Nature of the experiment: biotin-peptide streptavidin pull-down. Particulars: reference: unphosphorylated PD-1 peptide; sites T234.
A further experiment addresses USP5 UBA1/2 domains (UniProt P45974). The experiment can be described thus: biotin-peptide streptavidin pull-down. Particulars: reference: unphosphorylated PD-1 peptide; sites T234.
For experiment [4], the target named is USP5 (UniProt P45974). The experiment can be described thus: GST pull-down with purified His-USP5. The following applies: reference: GST-PD-1 (192-288) wild type, ERK1-treated; sites T234.
In a further experiment the target is T1, His-USP5 (human, UniProt P45974 1-858).
T1 construct: recombinant human USP5, His-tagged; also called recombinant human USP5 protein; purified recombinant His-USP5; source: bought: Sino biological (12772-H08B), purified recombinant USP5 from baculovirus-insect cells
T1 sequence (looked up): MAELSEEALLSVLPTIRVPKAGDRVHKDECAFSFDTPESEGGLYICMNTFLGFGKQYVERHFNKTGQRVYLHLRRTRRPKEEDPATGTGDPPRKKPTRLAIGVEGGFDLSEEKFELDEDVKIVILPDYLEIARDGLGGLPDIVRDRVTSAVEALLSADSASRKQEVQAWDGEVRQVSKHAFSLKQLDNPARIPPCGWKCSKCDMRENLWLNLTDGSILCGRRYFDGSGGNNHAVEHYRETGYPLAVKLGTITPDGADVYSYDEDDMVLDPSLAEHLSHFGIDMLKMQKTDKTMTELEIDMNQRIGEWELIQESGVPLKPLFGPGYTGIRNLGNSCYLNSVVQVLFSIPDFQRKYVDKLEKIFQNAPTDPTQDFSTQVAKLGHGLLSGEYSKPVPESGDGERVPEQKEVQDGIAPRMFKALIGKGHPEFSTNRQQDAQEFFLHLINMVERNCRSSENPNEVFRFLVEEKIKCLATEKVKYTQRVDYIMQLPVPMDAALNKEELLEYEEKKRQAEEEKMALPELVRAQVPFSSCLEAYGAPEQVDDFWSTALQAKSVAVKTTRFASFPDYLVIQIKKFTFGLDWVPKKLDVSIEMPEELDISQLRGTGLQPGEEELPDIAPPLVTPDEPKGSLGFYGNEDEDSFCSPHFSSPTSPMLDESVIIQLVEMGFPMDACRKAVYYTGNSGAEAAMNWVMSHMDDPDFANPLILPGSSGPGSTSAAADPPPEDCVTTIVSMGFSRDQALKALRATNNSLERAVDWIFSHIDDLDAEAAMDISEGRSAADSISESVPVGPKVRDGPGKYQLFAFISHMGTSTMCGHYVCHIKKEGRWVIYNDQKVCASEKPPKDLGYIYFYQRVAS
Nature of the experiment: pull-down; bacterially purified GST-PD-1 (192-288) phosphorylated by ERK1 in vitro, then GST pull-down with purified recombinant His-USP5, immunoblot. Particulars: both partners purified.

We go through five molecules from article PMC10199079, “ERK and USP5 govern PD-1 homeostasis via deubiquitination to modulate tumor immunotherapy” (Nature Communications, 2023).

Consider “PD-1 (from UniProt Q15116) PD-1-cHA T234A lysate”, for which, in the experiment with USP5 [1], the “binding against the reference” value was “weaker”.

For PD-1 (from UniProt Q15116) PD-1 T234A, in the experiment with USP5 [2], the “binding against the reference” value is recorded as “weaker”.

As to “PD-1 (from UniProt Q15116) pT234 PD-1 peptide”, the “binding against the reference” value with USP5 [3] and with USP5 UBA1/2 domains was “gained” throughout.

As for “PD-1 cytoplasmic region, 192-288 (from UniProt Q15116) GST-PD-1 (192-288) T234A, ERK1-treated”, the “binding against the reference” value in the experiment with USP5 [4] is “weaker”.

B1: ERK1-phosphorylated GST-PD-1 (192-288) (domain or fragment, human, UniProt Q15116 192-288, looked up)
chain: CSRAARGTIGARRTGQPLKEDPSAVPVFSVDYGELDFQWREKTPEPPVPCVPEQTEYATIVFPSGMGTSSPARRGSADGPRSAQPLRPEDGHCSWPL
modifications: phosphorylated by ERK1 in vitro (the paper maps the ERK site to Thr234)
notes: source: E. coli BL21, purified, then phosphorylated by ERK1 in vitro
In the case of B1, the binding result in the experiment with His-USP5 is listed as “binds”.
